Common to all, as to assay: cryo-EM structure; SWR1-hexasome complex, 3.5 Å; SWR1 premixed 1:1 with hexasome, 1 mM ADP:BeF, 25 mM HEPES pH 7.5, 50 mM NaCl, 30°C 10 min, glycerol gradient, no crosslinking
Conditions in all cases: both partners purified

One assay deals with S. cerevisiae histone H4 (S. cerevisiae, UniProt P02309 1-103).
In a further assay the target is T1, Swr1 subunit (yeast, UniProt Q05471 1-1514).
T1 construct: Stood in the assay as part of m1; also called Swr1 motor domains

The target of a further assay is T2, Arp6 subunit (yeast, UniProt Q12509 1-438).
T2 construct: Stood in the assay as part of m1
T2 sequence: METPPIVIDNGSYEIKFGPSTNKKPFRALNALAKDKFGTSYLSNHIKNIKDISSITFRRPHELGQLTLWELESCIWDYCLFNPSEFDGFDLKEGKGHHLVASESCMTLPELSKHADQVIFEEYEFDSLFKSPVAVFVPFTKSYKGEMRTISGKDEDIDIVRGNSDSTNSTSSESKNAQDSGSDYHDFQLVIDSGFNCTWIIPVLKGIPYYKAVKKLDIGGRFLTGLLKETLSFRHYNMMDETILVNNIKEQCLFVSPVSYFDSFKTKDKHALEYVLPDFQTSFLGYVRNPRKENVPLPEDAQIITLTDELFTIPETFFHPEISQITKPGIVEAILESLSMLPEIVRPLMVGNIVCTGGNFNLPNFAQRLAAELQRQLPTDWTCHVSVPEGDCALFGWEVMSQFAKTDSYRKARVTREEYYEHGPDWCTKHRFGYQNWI

T1 sequence (Q05471 whole entry, the tested form may be a part): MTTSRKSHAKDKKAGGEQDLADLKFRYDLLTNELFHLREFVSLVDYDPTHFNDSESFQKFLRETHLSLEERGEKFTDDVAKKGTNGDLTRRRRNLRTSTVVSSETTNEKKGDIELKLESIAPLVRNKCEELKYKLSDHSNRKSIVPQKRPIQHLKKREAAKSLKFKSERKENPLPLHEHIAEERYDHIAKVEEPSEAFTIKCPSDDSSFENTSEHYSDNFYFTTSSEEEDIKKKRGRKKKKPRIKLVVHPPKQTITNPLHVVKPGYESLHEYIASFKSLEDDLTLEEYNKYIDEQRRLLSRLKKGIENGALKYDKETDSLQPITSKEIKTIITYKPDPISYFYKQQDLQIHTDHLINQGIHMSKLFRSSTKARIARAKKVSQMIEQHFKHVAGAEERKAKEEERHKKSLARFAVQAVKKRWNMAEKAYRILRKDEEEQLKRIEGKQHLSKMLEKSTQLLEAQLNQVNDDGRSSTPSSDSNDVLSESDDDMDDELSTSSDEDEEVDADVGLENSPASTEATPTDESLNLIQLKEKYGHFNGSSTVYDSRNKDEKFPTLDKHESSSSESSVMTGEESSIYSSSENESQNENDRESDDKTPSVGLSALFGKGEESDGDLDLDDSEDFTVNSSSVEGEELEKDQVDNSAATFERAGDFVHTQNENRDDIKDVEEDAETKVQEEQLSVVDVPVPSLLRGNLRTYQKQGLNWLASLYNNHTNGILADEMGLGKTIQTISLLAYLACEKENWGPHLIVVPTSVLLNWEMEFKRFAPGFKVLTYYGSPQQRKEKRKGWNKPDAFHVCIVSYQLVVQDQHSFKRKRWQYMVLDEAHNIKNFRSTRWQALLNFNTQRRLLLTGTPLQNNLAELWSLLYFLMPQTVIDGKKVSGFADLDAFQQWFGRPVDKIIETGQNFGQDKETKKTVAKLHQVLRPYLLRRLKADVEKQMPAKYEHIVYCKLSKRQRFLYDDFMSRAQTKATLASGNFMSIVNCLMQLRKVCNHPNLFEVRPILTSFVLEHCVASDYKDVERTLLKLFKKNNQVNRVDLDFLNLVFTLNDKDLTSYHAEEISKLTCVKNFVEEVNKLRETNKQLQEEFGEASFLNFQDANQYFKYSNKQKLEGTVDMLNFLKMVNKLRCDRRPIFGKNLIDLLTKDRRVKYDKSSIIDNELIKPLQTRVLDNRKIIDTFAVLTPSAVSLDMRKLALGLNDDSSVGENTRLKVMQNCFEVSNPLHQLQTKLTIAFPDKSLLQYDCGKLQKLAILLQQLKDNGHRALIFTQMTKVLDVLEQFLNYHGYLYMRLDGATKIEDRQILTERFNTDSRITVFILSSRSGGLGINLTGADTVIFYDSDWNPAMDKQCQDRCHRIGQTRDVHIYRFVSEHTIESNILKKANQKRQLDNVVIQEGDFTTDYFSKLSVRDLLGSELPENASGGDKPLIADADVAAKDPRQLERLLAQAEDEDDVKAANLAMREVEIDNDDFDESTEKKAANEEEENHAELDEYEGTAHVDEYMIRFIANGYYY

B1: Swc5 subunit (natural protein, yeast)
chain: MPEVETKIIPNEKEDEDEDGYIEEEDEDFQPEKDKLGGGSDDSDASDGGDDYDDGVNRDKGRNKVDYSRIESESGGLIKTRRARQAEEEYAKTHKYESLTVESIPAKVNSIWEELQEASKNRLLSSSGKVGSVLDGSKEARSTTAAQQEDKILIERNYKFAGETVHEKKWVSRSSAEGQEYLNSLKFKQQAPAAPVQLEKAVRTKSNESRQHLRRPLKRPPLLEQIISGGLRPKLTTLEKSQLDWASYVDRAGLNDELVLHNKDGFLARQEFLQRVGSAEDERYKELRRQQLAQQLQQDSEAS
notes: residues 196-303 built in the structure; Stood in the assay as part of m1
Regarding B1, the binding result with S. cerevisiae histone H4 and with Swr1 subunit was “binds” in each case.

B2: Swc6 subunit (natural protein, yeast)
chain: MKALVEEIDKKTYNPDIYFTSLDPQARRYTSKKINKQGTISTSRPVKRINYSLADLEARLYTSRSEGDGNSISRQDDRNSKNSHSFEERYTQQEILQSDRRFMELNTENFSDLPNVPTLLSDLTGVPRDRIESTTKPISQTSDGLSALMGGSSFVKEHSKYGHGWVLKPETLREIQLSYKSTKLPKPKRKNTNRIVALKKVLSSKRNLHSFLDSALLNLMDKNVIYHNVYNKRYFKVLPLITTCSICGGYDSISSCVNCGNKICSVSCFKLHNETRCRNR
notes: Stood in the assay as part of m1
With B2, the binding result with Arp6 subunit is “binds”.
